Test results from paper PMC10739154, “Reinvestigation of Disulfide-bonded Oligomeric Forms of the Unfolded Protein Response Transducer ATF6” (Cell Structure and Function, 2019).

Assays:
[1] = target: C467A mutant of ATF6α(Δ244)-TAP (human); assay: non-reducing SDS-PAGE with immunoblotting; ATF6α-TAP constructs of various lengths at the N-terminus in HCT116 DKO cells; lysates on non-reducing SDS-PAGE; blot with anti-Myc; shows disulfide-bonded forms
[2] = target: C618A mutant of ATF6α(Δ244)-TAP (human); assay: as above
[3] = target: the molecule itself; assay: non-reducing SDS-PAGE with immunoblotting; one form of ATF6α in the cells; lysis in 1% NP-40 buffer (50 mM Tris/HCl pH 7.5, 150 mM NaCl, 10 mM N-ethylmaleimide), boiled in SDS sample buffer without dithiothreitol; blot with anti-ATF6α; shows disulfide-bonded forms
[4] = target: the molecule itself; assay: non-reducing SDS-PAGE with immunoblotting; ATF6α-TAP constructs of various lengths at the N-terminus in HCT116 DKO cells; lysates on non-reducing SDS-PAGE; blot with anti-Myc; shows disulfide-bonded forms

Row | Molecule | stoichiometry N [3] | other results
1 | C467A mutant of ATF6α(Δ244)-TAP (domain or fragment) |  | stoichiometry N [1]: 2
2 | C618A mutant of ATF6α(Δ244)-TAP (domain or fragment) |  | stoichiometry N [2]: 2
3 | ATF6α (endogenous, HCT116 cells) (natural protein, human (endogenous in HCT116), UniProt P18850 1-670, looked up, ATF6α, endogenous in human colorectal carcinoma-derived HCT116 cells; also called pATF6α(P); source: endogenous, HCT116 WT cell lysate) MGEPAGVAGTMESPFSPGLFHRLDEDWDSALFAELGYFTDTDELQLEAANETYENNFDNLDFDLDLMPWESDIWDINNQICTVKDIKAEPQPLSPASSSYSVSSPRSVDSYSSTQHVPEELDLSSSSQMSPLSLYGENSNSLSSAEPLKEDKPVTGPRNKTENGLTPKKKIQVNSKPSIQPKPLLLPAAPKTQTNSSVPAKTIIIQTVPTLMPLAKQQPIISLQPAPTKGQTVLLSQPTVVQLQAPGVLPSAQPVLAVAGGVTQLPNHVVNVVPAPSANSPVNGKLSVTKPVLQSTMRNVGSDIAVLRRQQRMIKNRESACQSRKKKKEYMLGLEARLKAALSENEQLKKENGTLKRQLDEVVSENQRLKVPSPKRRVVCVMIVLAFIILNYGPMSMLEQDSRRMNPSVSPANQRRHLLGFSAKEAQDTSDGIIQKNSYRYDHSVSNDKALMVLTEEPLLYIPPPPCQPLINTTESLRLNHELRGWVHRHEVERTKSRRMTNNQQKTRILQGALEQGSNSQLMAVQYTETTSSISRNSGSELQVYYASPRSYQDFFEAIRRRGDTFYVVSFRRDHLLLPATTHNKTTRPKMSIVLPAININENVINGQDYEVMMQIDCQVMDTRILHIKSSSVPPYLRDQQRNQTNTFFGSPPAATEATHVVSTIPESLQ | 2 | 
4 | C618A mutant of ATF6α-TAP (natural protein, human, UniProt P18850 1-670, looked up, ATF6α, human, full length, C618A; also called ATF6α(C618A)-TAP; source: HCT116 ATF6α/β-DKO cells, transfected, in lysate) MGEPAGVAGTMESPFSPGLFHRLDEDWDSALFAELGYFTDTDELQLEAANETYENNFDNLDFDLDLMPWESDIWDINNQICTVKDIKAEPQPLSPASSSYSVSSPRSVDSYSSTQHVPEELDLSSSSQMSPLSLYGENSNSLSSAEPLKEDKPVTGPRNKTENGLTPKKKIQVNSKPSIQPKPLLLPAAPKTQTNSSVPAKTIIIQTVPTLMPLAKQQPIISLQPAPTKGQTVLLSQPTVVQLQAPGVLPSAQPVLAVAGGVTQLPNHVVNVVPAPSANSPVNGKLSVTKPVLQSTMRNVGSDIAVLRRQQRMIKNRESACQSRKKKKEYMLGLEARLKAALSENEQLKKENGTLKRQLDEVVSENQRLKVPSPKRRVVCVMIVLAFIILNYGPMSMLEQDSRRMNPSVSPANQRRHLLGFSAKEAQDTSDGIIQKNSYRYDHSVSNDKALMVLTEEPLLYIPPPPCQPLINTTESLRLNHELRGWVHRHEVERTKSRRMTNNQQKTRILQGALEQGSNSQLMAVQYTETTSSISRNSGSELQVYYASPRSYQDFFEAIRRRGDTFYVVSFRRDHLLLPATTHNKTTRPKMSIVLPAININENVINGQDYEVMMQIDAQVMDTRILHIKSSSVPPYLRDQQRNQTNTFFGSPPAATEATHVVSTIPESLQ |  | stoichiometry N [4]: 2
5 | EGFP-ATF6α(WT) (natural protein, human, UniProt P18850 1-670, looked up, ATF6α, human, tagged with EGFP at the N-terminus; Constructed in previous studies (Nadanaka et al., 2007; 2004); source: HCT116 ATF6α/β-DKO cells, transfected, in lysate; not shown: EGFP, N-terminal, kept) MGEPAGVAGTMESPFSPGLFHRLDEDWDSALFAELGYFTDTDELQLEAANETYENNFDNLDFDLDLMPWESDIWDINNQICTVKDIKAEPQPLSPASSSYSVSSPRSVDSYSSTQHVPEELDLSSSSQMSPLSLYGENSNSLSSAEPLKEDKPVTGPRNKTENGLTPKKKIQVNSKPSIQPKPLLLPAAPKTQTNSSVPAKTIIIQTVPTLMPLAKQQPIISLQPAPTKGQTVLLSQPTVVQLQAPGVLPSAQPVLAVAGGVTQLPNHVVNVVPAPSANSPVNGKLSVTKPVLQSTMRNVGSDIAVLRRQQRMIKNRESACQSRKKKKEYMLGLEARLKAALSENEQLKKENGTLKRQLDEVVSENQRLKVPSPKRRVVCVMIVLAFIILNYGPMSMLEQDSRRMNPSVSPANQRRHLLGFSAKEAQDTSDGIIQKNSYRYDHSVSNDKALMVLTEEPLLYIPPPPCQPLINTTESLRLNHELRGWVHRHEVERTKSRRMTNNQQKTRILQGALEQGSNSQLMAVQYTETTSSISRNSGSELQVYYASPRSYQDFFEAIRRRGDTFYVVSFRRDHLLLPATTHNKTTRPKMSIVLPAININENVINGQDYEVMMQIDCQVMDTRILHIKSSSVPPYLRDQQRNQTNTFFGSPPAATEATHVVSTIPESLQ | 2 | 
6 | C467A mutant of ATF6α-TAP (natural protein, human, UniProt P18850 1-670, looked up, ATF6α, human, full length, C467A; also called ATF6α(C467A)-TAP; source: HCT116 ATF6α/β-DKO cells, transfected, in lysate) MGEPAGVAGTMESPFSPGLFHRLDEDWDSALFAELGYFTDTDELQLEAANETYENNFDNLDFDLDLMPWESDIWDINNQICTVKDIKAEPQPLSPASSSYSVSSPRSVDSYSSTQHVPEELDLSSSSQMSPLSLYGENSNSLSSAEPLKEDKPVTGPRNKTENGLTPKKKIQVNSKPSIQPKPLLLPAAPKTQTNSSVPAKTIIIQTVPTLMPLAKQQPIISLQPAPTKGQTVLLSQPTVVQLQAPGVLPSAQPVLAVAGGVTQLPNHVVNVVPAPSANSPVNGKLSVTKPVLQSTMRNVGSDIAVLRRQQRMIKNRESACQSRKKKKEYMLGLEARLKAALSENEQLKKENGTLKRQLDEVVSENQRLKVPSPKRRVVCVMIVLAFIILNYGPMSMLEQDSRRMNPSVSPANQRRHLLGFSAKEAQDTSDGIIQKNSYRYDHSVSNDKALMVLTEEPLLYIPPPPAQPLINTTESLRLNHELRGWVHRHEVERTKSRRMTNNQQKTRILQGALEQGSNSQLMAVQYTETTSSISRNSGSELQVYYASPRSYQDFFEAIRRRGDTFYVVSFRRDHLLLPATTHNKTTRPKMSIVLPAININENVINGQDYEVMMQIDCQVMDTRILHIKSSSVPPYLRDQQRNQTNTFFGSPPAATEATHVVSTIPESLQ |  | stoichiometry N [4]: 2
7 | HA-ATF6α(WT) (natural protein, human, UniProt P18850 1-670, looked up, ATF6α, human, full length; Plasmid from R. Prywes (Wang et al., 2000); also called HA-tagged WT; HA-tagged ATF6α WT; source: HCT116 ATF6α/β-DKO cells, transfected, in lysate; not shown: HA, N-terminal, kept) MGEPAGVAGTMESPFSPGLFHRLDEDWDSALFAELGYFTDTDELQLEAANETYENNFDNLDFDLDLMPWESDIWDINNQICTVKDIKAEPQPLSPASSSYSVSSPRSVDSYSSTQHVPEELDLSSSSQMSPLSLYGENSNSLSSAEPLKEDKPVTGPRNKTENGLTPKKKIQVNSKPSIQPKPLLLPAAPKTQTNSSVPAKTIIIQTVPTLMPLAKQQPIISLQPAPTKGQTVLLSQPTVVQLQAPGVLPSAQPVLAVAGGVTQLPNHVVNVVPAPSANSPVNGKLSVTKPVLQSTMRNVGSDIAVLRRQQRMIKNRESACQSRKKKKEYMLGLEARLKAALSENEQLKKENGTLKRQLDEVVSENQRLKVPSPKRRVVCVMIVLAFIILNYGPMSMLEQDSRRMNPSVSPANQRRHLLGFSAKEAQDTSDGIIQKNSYRYDHSVSNDKALMVLTEEPLLYIPPPPCQPLINTTESLRLNHELRGWVHRHEVERTKSRRMTNNQQKTRILQGALEQGSNSQLMAVQYTETTSSISRNSGSELQVYYASPRSYQDFFEAIRRRGDTFYVVSFRRDHLLLPATTHNKTTRPKMSIVLPAININENVINGQDYEVMMQIDCQVMDTRILHIKSSSVPPYLRDQQRNQTNTFFGSPPAATEATHVVSTIPESLQ | 2 | 
8 | HA-ATF6α(C467A) (natural protein, human, UniProt P18850 1-670, looked up, ATF6α, human, full length, C467A; Constructed in previous studies (Nadanaka et al., 2007; 2004); also called HA-tagged C467A mutant; source: HCT116 ATF6α/β-DKO cells, transfected, in lysate; not shown: HA, N-terminal, kept) MGEPAGVAGTMESPFSPGLFHRLDEDWDSALFAELGYFTDTDELQLEAANETYENNFDNLDFDLDLMPWESDIWDINNQICTVKDIKAEPQPLSPASSSYSVSSPRSVDSYSSTQHVPEELDLSSSSQMSPLSLYGENSNSLSSAEPLKEDKPVTGPRNKTENGLTPKKKIQVNSKPSIQPKPLLLPAAPKTQTNSSVPAKTIIIQTVPTLMPLAKQQPIISLQPAPTKGQTVLLSQPTVVQLQAPGVLPSAQPVLAVAGGVTQLPNHVVNVVPAPSANSPVNGKLSVTKPVLQSTMRNVGSDIAVLRRQQRMIKNRESACQSRKKKKEYMLGLEARLKAALSENEQLKKENGTLKRQLDEVVSENQRLKVPSPKRRVVCVMIVLAFIILNYGPMSMLEQDSRRMNPSVSPANQRRHLLGFSAKEAQDTSDGIIQKNSYRYDHSVSNDKALMVLTEEPLLYIPPPPAQPLINTTESLRLNHELRGWVHRHEVERTKSRRMTNNQQKTRILQGALEQGSNSQLMAVQYTETTSSISRNSGSELQVYYASPRSYQDFFEAIRRRGDTFYVVSFRRDHLLLPATTHNKTTRPKMSIVLPAININENVINGQDYEVMMQIDCQVMDTRILHIKSSSVPPYLRDQQRNQTNTFFGSPPAATEATHVVSTIPESLQ | 2 | 
9 | EGFP-ATF6α(C467A) (natural protein, human, UniProt P18850 1-670, looked up, ATF6α, human, C467A, tagged with EGFP at the N-terminus; Constructed in previous studies (Nadanaka et al., 2007; 2004); source: HCT116 ATF6α/β-DKO cells, transfected, in lysate; not shown: EGFP, N-terminal, kept) MGEPAGVAGTMESPFSPGLFHRLDEDWDSALFAELGYFTDTDELQLEAANETYENNFDNLDFDLDLMPWESDIWDINNQICTVKDIKAEPQPLSPASSSYSVSSPRSVDSYSSTQHVPEELDLSSSSQMSPLSLYGENSNSLSSAEPLKEDKPVTGPRNKTENGLTPKKKIQVNSKPSIQPKPLLLPAAPKTQTNSSVPAKTIIIQTVPTLMPLAKQQPIISLQPAPTKGQTVLLSQPTVVQLQAPGVLPSAQPVLAVAGGVTQLPNHVVNVVPAPSANSPVNGKLSVTKPVLQSTMRNVGSDIAVLRRQQRMIKNRESACQSRKKKKEYMLGLEARLKAALSENEQLKKENGTLKRQLDEVVSENQRLKVPSPKRRVVCVMIVLAFIILNYGPMSMLEQDSRRMNPSVSPANQRRHLLGFSAKEAQDTSDGIIQKNSYRYDHSVSNDKALMVLTEEPLLYIPPPPAQPLINTTESLRLNHELRGWVHRHEVERTKSRRMTNNQQKTRILQGALEQGSNSQLMAVQYTETTSSISRNSGSELQVYYASPRSYQDFFEAIRRRGDTFYVVSFRRDHLLLPATTHNKTTRPKMSIVLPAININENVINGQDYEVMMQIDCQVMDTRILHIKSSSVPPYLRDQQRNQTNTFFGSPPAATEATHVVSTIPESLQ | 2 | 
10 | EGFP-ATF6α(C618A) (natural protein, human, UniProt P18850 1-670, looked up, ATF6α, human, C618A, tagged with EGFP at the N-terminus; Constructed in previous studies (Nadanaka et al., 2007; 2004); source: HCT116 ATF6α/β-DKO cells, transfected, in lysate; not shown: EGFP, N-terminal, kept) MGEPAGVAGTMESPFSPGLFHRLDEDWDSALFAELGYFTDTDELQLEAANETYENNFDNLDFDLDLMPWESDIWDINNQICTVKDIKAEPQPLSPASSSYSVSSPRSVDSYSSTQHVPEELDLSSSSQMSPLSLYGENSNSLSSAEPLKEDKPVTGPRNKTENGLTPKKKIQVNSKPSIQPKPLLLPAAPKTQTNSSVPAKTIIIQTVPTLMPLAKQQPIISLQPAPTKGQTVLLSQPTVVQLQAPGVLPSAQPVLAVAGGVTQLPNHVVNVVPAPSANSPVNGKLSVTKPVLQSTMRNVGSDIAVLRRQQRMIKNRESACQSRKKKKEYMLGLEARLKAALSENEQLKKENGTLKRQLDEVVSENQRLKVPSPKRRVVCVMIVLAFIILNYGPMSMLEQDSRRMNPSVSPANQRRHLLGFSAKEAQDTSDGIIQKNSYRYDHSVSNDKALMVLTEEPLLYIPPPPCQPLINTTESLRLNHELRGWVHRHEVERTKSRRMTNNQQKTRILQGALEQGSNSQLMAVQYTETTSSISRNSGSELQVYYASPRSYQDFFEAIRRRGDTFYVVSFRRDHLLLPATTHNKTTRPKMSIVLPAININENVINGQDYEVMMQIDAQVMDTRILHIKSSSVPPYLRDQQRNQTNTFFGSPPAATEATHVVSTIPESLQ | 2 | 
